# Data as given in patent US7976843B2, “Method for screening peptides for use in immunotherapy” (Institut National de la Santa et de la Recherche Medicale …, priority 2000, dated 2011).
# Like-named read-outs stand apart in the source and are kept apart here.
# What was measured:
# HLA A2.1 molecule [1] = target: T1, HLA A2.1 molecule (Homo sapiens, UniProt P04439, D140Y/D185E/D98H/E176V/E277Q/G131W/G231S/I119V/I121R/I166T/I218V/L300P/L318F/N151K/N90K/P208A/P217A/Q86G/Q94H/R138H/R169H/T345S); assay type: binding
# HLA A2.1 molecule [2] = target: T1, HLA A2.1 molecule; test: Stability of the peptide/HLA A2.1 complex (DC50) on T2 cells, flow cytometry; assay type: binding; settings: for DC50 Y1-DC50 WT: arrow in neighbouring cell gives direction
# Experimental: For each incubation time, the cells are then labeled, as indicated above, with the BB7.2 antibody, and analyzed by flow cytometry in order to evaluate the amount of peptide/HLA A2.1 complex present at their surface. […] The DC50 (dissociation complex: DC) is defined as being the time required for the loss of 50% of the HLA A2.1/peptide complexes stabilized at t=0.
# [3] = test system: RMAS-HHD targets loaded with peptide; test: Immunogenicity: CTL generation in HHD transgenic mice, 51Cr lysis of peptide-loaded targets; assay type: in vivo; settings: for percentage of HHD mice in which a CTL response is induced: mice sensitized with the peptide; for killing of RMAS-HHD cells loaded with natural peptide or its P1Y variant: CTLs induced in HHD mice sensitized with the natural peptide, FIG. 1; for immunogenicity (in words): HHD mice (also humans)
# [4] = native peptides, relative affinity vs reference peptide HIVpol 589, lower RA = stronger binding
# [5] = native peptides, time for loss of 50% of HLA A2.1/peptide complexes
# [6] = native TERT peptides, reference peptide HIVpol 589
# [7] = HHD mice, 100 μg peptide s.c., responder: specific cytotoxicity >15% above unloaded targets
# [8] = difference between DC50 of P1Y variant and natural peptide
substance,measurement,setting,value
LLGCAANWIL [HBV pol 765],RA,HLA A2.1 molecule [1]; [4],2.0
same,DC50 Y1-DC50 WT,HLA A2.1 molecule [2]; […],4 h
same,DC50,HLA A2.1 molecule [2]; [5],4 h
KLTPLCVSL [K9L],"RA, P1Y peptides",HLA A2.1 molecule [1],0.7
same,"RA, Native peptides","HLA A2.1 molecule [1]; HIV 1 peptides, […]",1.35
same,"DC, P1Y peptides",HLA A2.1 molecule [2],>6 h
same,"DC, Native peptides",HLA A2.1 molecule [2]; HIV 1 peptides,>6 h
gp100 177Y1: P1Y variant of gp100 177 (YMLGTHTMEV),percentage of HHD mice in which a CTL response is induced,[3],75%
RLRDLLLIV [R9V],"RA, P1Y peptides",HLA A2.1 molecule [1],5
same,"RA, Native peptides","HLA A2.1 molecule [1]; HIV 1 peptides, […]",>100
FLFWLMDTYV [mp 534],RA,HLA A2.1 molecule [1]; [6],0.2
same,DC50,HLA A2.1 molecule [2]; native TERT peptides,>6 h
KTWGQYWQV [gp100 154],killing of RMAS-HHD cells loaded with natural peptide or its P1Y variant,[3],same efficacy
same,Responders/total mice,[3]; [7],7/9
PLVKLWYQL [P9L],"RA, P1Y peptides",HLA A2.1 molecule [1],4.6
same,"RA, Native peptides","HLA A2.1 molecule [1]; HIV 1 peptides, […]",>100
same,"DC, P1Y peptides",HLA A2.1 molecule [2],<2 h
"ILKEPVHGV [I9V, reference compound]","RA, Native peptides",HLA A2.1 molecule [1],1
same,"DC, Native peptides",HLA A2.1 molecule [2],5 h
HER-2/neu 369Y1: P1Y variant of HER-2/neu 369 (YIFGSLAFL),percentage of HHD mice in which a CTL response is induced,[3],100%
"GILGPVFTL [Flu M58, reference compound]",RA,HLA A2.1 molecule [1]; [4],0.2
same,DC50,HLA A2.1 molecule [2]; [5],>8 h
same,Responders/total mice,[3]; [7],4/6
LLWKGEGAV [L9V],"RA, Native peptides",HLA A2.1 molecule [1],3.1
same,"RA, P1Y peptides",HLA A2.1 molecule [1],1.3
same,"DC, Native peptides",HLA A2.1 molecule [2],>6 h
same,"DC, P1Y peptides",HLA A2.1 molecule [2],>6 h
TLEEITGYL [HER-2/neu 402],RA,HLA A2.1 molecule [1]; [4],19.0
same,DC50 Y1-DC50 WT,HLA A2.1 molecule [2]; […],>2 h
same,DC50,HLA A2.1 molecule [2]; [5],<2 h
same,immunogenicity (in words),[3],nonimmunogenic
same,Responders/total mice,"[3]; mouse, in vivo, sc",0/6
gp100 476Y1: P1Y variant of gp100 476 (YLYRYGSFSV),percentage of HHD mice in which a CTL response is induced,[3],100%
ALCRWGLLL [HER-2/neu 5],Responders/total mice,[3]; [7],5/6
CLTSTVQLV [HER-2/neu 789],Responders/total mice,[3]; [7],4/6
"SLADTNSLAV [gp100 570, reference compound]",RA,HLA A2.1 molecule [1]; [4],1.0
same,DC50 Y1-DC50 WT,HLA A2.1 molecule [2]; […],>2 h
same,DC50,HLA A2.1 molecule [2]; [5],4 to 6 h
same,killing of RMAS-HHD cells loaded with natural peptide or its P1Y variant,[3],same efficacy
same,Responders/total mice,"[3]; mouse, in vivo, sc",6/9
ILATFLAWL [mp 530],RA,HLA A2.1 molecule [1]; [6],0.8
same,DC50,HLA A2.1 molecule [2]; native TERT peptides,>6 h
"MLLAVLYCL [Tyrosinase 1, reference compound]",RA,HLA A2.1 molecule [1]; [4],>60.0
same,Responders/total mice,[3]; [7],4/23
same,percentage of HHD mice in which a CTL response is induced,[3],17%
VLDVGDAYFSV [V11V],"RA, P1Y peptides",HLA A2.1 molecule [1],2.5
same,"RA, Native peptides","HLA A2.1 molecule [1]; HIV 1 peptides, […]",4.5
same,"DC, P1Y peptides",HLA A2.1 molecule [2],3.5 h
same,"DC, Native peptides",HLA A2.1 molecule [2]; HIV 1 peptides,2 h
ILAKFLHWL [mhp 540],RA,HLA A2.1 molecule [1]; [6],0.3
same,DC50,HLA A2.1 molecule [2]; native TERT peptides,>6 h
"FLLSLGIHL [HBV pol 575, reference compound]",killing of RMAS-HHD cells loaded with natural peptide or its P1Y variant,[3],same efficacy
same,Responders/total mice,[3]; [7],6/8
"YLVPQQGFFC [HER-2/neu 1023, reference compound]",RA (bound stated in text),HLA A2.1 molecule [1],> 5
same,RA,HLA A2.1 molecule [1]; [4],19.6
same,DC50,HLA A2.1 molecule [2]; [5],4 h
same,Responders/total mice,"[3]; mouse, in vivo, sc",5/10
ILLVVVLGV [HER-2/neu 661],RA,HLA A2.1 molecule [1]; [4],>60.0
same,DC50 Y1-DC50 WT,HLA A2.1 molecule [2]; [8],2 h
same,DC50,HLA A2.1 molecule [2]; [5],2 to 4 h
same,immunogenicity (in words),[3],non-immunogenic
same,Responders/total mice,"[3]; mouse, in vivo, sc",0/6
AFHNVAREL [A9L],"RA, P1Y peptides",HLA A2.1 molecule [1],7
same,"RA, Native peptides","HLA A2.1 molecule [1]; HIV 1 peptides, […]",>100
same,"DC, P1Y peptides",HLA A2.1 molecule [2],>6 h
ALIHHNTHL [HER-2/neu 466],immunogenicity (in words),[3],nonimmunogenic
same,Responders/total mice,"[3]; mouse, in vivo, sc",0/6
KLTGDENFTI [Tyrosinase 224],RA,HLA A2.1 molecule [1]; [4],>50.0
same,DC50 Y1-DC50 WT,HLA A2.1 molecule [2]; [8],>2 h
same,DC50,HLA A2.1 molecule [2]; [5],<2 h
same,Responders/total mice,[3]; [7],0/6
"AMLGTHTMEV [gp100 177, reference compound]",RA,HLA A2.1 molecule [1]; [4],0.5
same,DC50 Y1-DC50 WT,HLA A2.1 molecule [2]; […],2 h
same,DC50,HLA A2.1 molecule [2]; [5],>6 h
same,killing of RMAS-HHD cells loaded with natural peptide or its P1Y variant,[3],same efficacy
same,Responders/total mice,"[3]; mouse, in vivo, sc",3/5
NLQSLTNLL [HBV pol 985],Responders/total mice,[3]; [7],0/6
FLSTLVHGV [mp 676],RA,HLA A2.1 molecule [1]; [6],1.2
same,DC50,HLA A2.1 molecule [2]; native TERT peptides,>6 h
VIYQYMDDL [V9L],"RA, P1Y peptides",HLA A2.1 molecule [1],8.6
same,"RA, Native peptides","HLA A2.1 molecule [1]; HIV 1 peptides, […]",>100
same,"DC, P1Y peptides",HLA A2.1 molecule [2],<2 h
"ILTVILGVL [Mart-1 32, reference compound]",RA,HLA A2.1 molecule [1]; [4],21.1
same,immunogenicity (in words),[3],non-immunogenic
same,Responders/total mice,[3]; [7],0/10
PLEEELPRL [HBV pol 594],RA,HLA A2.1 molecule [1]; [4],4.2
same,DC50 Y1-DC50 WT,HLA A2.1 molecule [2]; […],>6 h
same,DC50,HLA A2.1 molecule [2]; [5],<2 h
same,Responders/total mice,[3]; [7],0/6
gp100 457Y1: P1Y variant of gp100 457 (YLDGTATLRL),percentage of HHD mice in which a CTL response is induced,[3],75%
"VLYRYGSFSV [gp100 476, reference compound]",RA,HLA A2.1 molecule [1]; [4],10.0
same,DC50 Y1-DC50 WT,HLA A2.1 molecule [2]; […],2 h
same,DC50,HLA A2.1 molecule [2]; [5],6 h
same,killing of RMAS-HHD cells loaded with natural peptide or its P1Y variant,[3],same efficacy
same,Responders/total mice,[3]; [7],8/10
"TDQVPFSV [gp100 209, reference compound]",DC50 Y1-DC50 WT,HLA A2.1 molecule [2]; […],2 h
same,DC50,HLA A2.1 molecule [2]; [5],4 h
same,Responders/total mice,"[3]; mouse, in vivo, sc",4/6
ALVEICTEM [A9M],"RA, Native peptides",HLA A2.1 molecule [1],5
same,"RA, P1Y peptides",HLA A2.1 molecule [1],1.75
same,"DC, Native peptides",HLA A2.1 molecule [2],2 h
same,"DC, P1Y peptides",HLA A2.1 molecule [2],>6 h
LLDDEAGPL [HBV pol 28],DC50 Y1-DC50 WT,HLA A2.1 molecule [2]; […],>2 h
same,DC50,HLA A2.1 molecule [2]; [5],<2 h
same,Responders/total mice,[3]; [7],0/6
PLTFGWCFKL [P10L],"RA, P1Y peptides",HLA A2.1 molecule [1],5
same,"RA, Native peptides","HLA A2.1 molecule [1]; HIV 1 peptides, […]",>100
YLIHHNTHL [HER-2/neu 466Y1],RA,HLA A2.1 molecule [1],1.4
same,DC50,HLA A2.1 molecule [2],6 h
MLGTHTMEV [gp100 178],RA,HLA A2.1 molecule [1]; [4],0.3
same,Responders/total mice,"[3]; mouse, in vivo, sc",4/6
gp100 570Y1: P1Y variant of gp100 570 (YLADTNSLAV),percentage of HHD mice in which a CTL response is induced,[3],100%
